From patent US20100239597A1
Numbering of substitutions follows the chain as printed. Values belong to the binder of their own block, whether it stands above or below them.

Columns and labels:
[1] = target: biotinylated ADDL (bADDL) (UniProt P05067); experiment: BIACORE, bADDL as antigen; IgG1#1
biotin-Aβ1-20 [2] = target: biotin-Aβ1-20 (UniProt P05067); experiment: BIACORE, biotin-Aβ1-20 as antigen; IgG1#1
[3] = target: biotinylated ADDL (bADDL) (UniProt P05067); experiment: BIACORE, bADDL as antigen; IgG1#2
biotin-Aβ1-20 [4] = target: biotin-Aβ1-20 (UniProt P05067); experiment: BIACORE, biotin-Aβ1-20 as antigen; IgG1#2

Kd [1]: 0.053 nM | Kd (biotin-Aβ1-20 [2]): 0.053 nM
B1: 20C2-6B IgG1 (antibody, V domains shown)
VH: QVTLKESGPALVKPTQTLTLTCTLSGFSLSTSGMGVGWIRQPPGKALEWLAHIWWDDDKSYNPSLKSRLTISKDTSKNQVVLTMTNMDPVDTATYYCARRQLGLRSIDAMDYWGQGTTVTVSS
VL: DVVMTQSPLSLPVTPGEPASISCRSSQSILHSNGNTYLEWYLQKPGQSPQLLIYKVSNRFSGVPDRFSGSGSGTDFTLKISRVEAEDVGVYYCFQSSRVPLTFGQGTKLEIK

Kd [1]: 0.013 nM | Kd [3]: 0.0008 nM | Kd (biotin-Aβ1-20 [2]): 0.046 nM | Kd (biotin-Aβ1-20 [4]): 0.064 nM
B2: 20C2-8B IgG1 (antibody, V domains shown)
VH: B1 VH
VL: B1 VL with F94L, S96T, S97T
